Experimental findings from US20240251767A1 are described below.

Assay [1] addresses SARS-CoV-2 Spike (S) protein with an inactivated furin site on HEK293-Spike cells (293-SARS2-S-dfur, (SARS-CoV-2) (UniProt P0DTC2)).
Assay [2] concerns the target SARS-Cov2 Spike Active Trimer SAT (R&D Systems; Catalog No. 10549-CV) (SARS-CoV2) (UniProt P0DTC2).
Assay [3] has the same target. As to the kind of experiment: ELISA, serially diluted purified Nb-Fc on SAT antigen. Background: An ELISA detects its analyte on a solid surface through an enzyme-linked reagent.
Assay [4] shares this target. As to the kind of experiment: SPR (Biacore). A general note: Surface plasmon resonance follows binding to a sensor surface in real time, without labels.
The target is the same in assay [5]. Kind of assay: SPR (Carterra).
Assay [6] has the same target. This is another data set of the same source.

Where two headings read alike, the source gives them in different places.

Usually Kd stands for the concentration at which binding is half-saturated. A lower Kd goes with higher affinity. For orientation: EC50 means the concentration at which the effect is half-maximal. Low readings indicate a more potent agent, high ones a less potent agent. The koff is a measure of how fast the partners let go of each other. One may read the kon as the second-order rate constant of association. A lower kon goes with slow association. In the case of “human SAT Nb-Fc control VH-Ab-8 (HAb8-S) (Fc fusion)”, in assay [1], the GMFI is 430 and the GMFI Ratio was found to be 21.1. In assay [2], this substance showed a Kd of 19.8 nM. In assay [3], this substance registered a concentration giving a half-maximal response (EC50) of 0.018 nM. In assay [4], the Kd came to 5.7 nM. The substance further registered a Kd in assay [5] of 37.3 nM. In assay [6], this substance gave a Response of 0.489, a koff of 0.00294 s⁻¹ and an on-rate constant (kon) of 149000 M⁻¹ s⁻¹.
